Earlier results on 1 substance are cited in publication PMC5874834.

For the series, the target named is VEGF165 VEGF165 (Homo sapiens) (UniProt P15692).
Sequence of UniProt P15692 (P15692 207-321, chain 1 of 2): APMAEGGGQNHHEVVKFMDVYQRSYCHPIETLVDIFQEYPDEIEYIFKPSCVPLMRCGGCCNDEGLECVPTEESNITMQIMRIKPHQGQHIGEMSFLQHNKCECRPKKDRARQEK
Sequence of UniProt P15692 (P15692 346-395, chain 2 of 2): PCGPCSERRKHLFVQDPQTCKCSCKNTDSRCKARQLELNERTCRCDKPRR

Take Brolucizumab scFv: the Kd was 1.6 pM.

One may read the Kd as the concentration at which binding is half-saturated.
